Patent US20240100187A1 (AC IMMUNE, published 2024)
Values joined by “and” are separate entries in the source; they are usually repeats but may differ in a detail not shown here. Equal entries are not always repeated.

Experiments:
[1] = biological target: T1, TDP-43 C-terminal peptide called TP-62; assay: BLI (Octet), TP-62 on streptavidin biosensors, 2-fold dilutions from 100 nM, 30 C
T1 construct: also called TP-62 peptide

[2] = biological target: T1, TDP-43 C-terminal peptide called TP-62; assay: BLI (Octet), TP-62 on streptavidin biosensors; range told for the IgG constructs, transfected or vectorized
[3] = biological target: T1, TDP-43 C-terminal peptide called TP-62; assay: BLI (Octet), TP-62 peptide loaded at 500 nM on streptavidin biosensors, antibody from 100 nM in 2-fold serial dilutions, 900 s association, 600 s dissociation [cont.]
[4] = biological target: T2, human full length TDP-43 protein (human, UniProt Q13148 1-414); assay: indirect ELISA on coated human full length TDP-43, anti-human secondary antibody, absorbance A450nm; apical supernatants of hCMEC/D3 in the OrganoPlate BBB model 3 days after transduction, and purified control antibodies
T2 construct: mature; Coated at 1 ug/ml on ELISA plates; also called hTDP-43 full length (FL) protein; human FL TDP-43
T2 sequence (Q13148 whole entry): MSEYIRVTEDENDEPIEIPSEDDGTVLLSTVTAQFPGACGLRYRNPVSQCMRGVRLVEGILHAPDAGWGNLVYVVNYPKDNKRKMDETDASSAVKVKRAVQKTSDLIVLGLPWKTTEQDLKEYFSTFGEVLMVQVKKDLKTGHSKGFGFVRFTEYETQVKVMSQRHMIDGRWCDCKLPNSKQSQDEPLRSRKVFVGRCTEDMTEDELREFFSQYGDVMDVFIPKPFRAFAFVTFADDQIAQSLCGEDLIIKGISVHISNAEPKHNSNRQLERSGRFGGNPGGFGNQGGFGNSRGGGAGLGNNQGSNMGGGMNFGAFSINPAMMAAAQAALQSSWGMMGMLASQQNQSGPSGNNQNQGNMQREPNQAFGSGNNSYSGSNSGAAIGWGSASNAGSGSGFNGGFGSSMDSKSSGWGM
Protocol: Supernatants from both top lane (apical) and bottom lane (basolateral) were collected 3 days post-transduction and antibody concentrations in the apical and basolateral compartments were determined by binding to human full-length (FL) TDP-43 using an indirect ELISA. In brief, ELISA plate coating with 1 μg/ml human FL TDP-43 was performed overnight in carbonate buffer at 4° C. Plates were washed with 0.05% Tween-20/PBS and then blocked with 1% bovine serum albumin (BSA) in 0.05% Tween-20/PBS for 1 hour at 37° C. Collected antibody-containing supernatants were then added to the plate and incubated for 2 hours at 37° C. after which the plates were washed. […] After the final wash, plates were incubated with pNPP solution and read at 405 nm after 1h using a plate reader (BioTek). […] Supernatants from both apical and basolateral sides were collected 3 days post-transduction and antibody concentrations in the apical and basolateral compartments were determined by binding to human FL TDP-43 using an indirect ELISA as described previously.

B1: MAB1 IgG (anti-TDP-43 antibody, chimeric human IgG1) (antibody, V domains shown)
VH: EVQLQQSGPELVKPGASVKISCKTSGFTFTEYSMHWVKQSHGKSLEWIGGINPNNGGTSYNQKFKGKATLTVDKSSSTAYMELRSLTSEDSAVYYCARESWGQGTTLTVSS
VL: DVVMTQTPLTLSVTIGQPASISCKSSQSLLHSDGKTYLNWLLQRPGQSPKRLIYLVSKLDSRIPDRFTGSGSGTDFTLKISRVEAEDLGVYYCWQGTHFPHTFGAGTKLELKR
notes: Chimeric human IgG1 anti-TDP-43; The IRES and 2 promoter constructs give the same correctly matured protein, whether transfected (CHO) or AAV-vectorized, so they are treated as one molecule; also called MAB1 hIgG1; IgG standard
B1 was tested, and the Kd [1] was 5.7 nM and 4.7 nM and 4.3 nM, the Kd [2] was 4 to 6 nM and the Kd [3] was about 4.66 nM. The koff [3] was 0.000435 s⁻¹, the kon [3] was 170000 M⁻¹ s⁻¹ and the binding result [4] was “binds”.
